From paper PMC11416365, “Exploring the manganese-dependent interaction between a transcription factor and its corresponding DNA: insights from gas-phase electrophoresis on a nES GEMMA instrument” (Analytical and Bioanalytical Chemistry, 2024)

Target: the molecule itself
Assay: nES GEMMA (gas-phase electrophoresis, nES DMA); BMntR alone at different concentrations, electrosprayed from 40 mM ammonium acetate pH 8.4; EM diameter 5.9 nm turned into a molecular weight by an EM diameter/MW correlation (34.6 kDa against 33.8 kDa theoretical for the dimer)

B1: MntR protein from B. subtilis (natural protein, Bacillus subtilis, UniProt P54512 1-142, looked up)
chain: MTTPSMEDYIEQIYMLIEEKGYARVSDIAEALAVHPSSVTKMVQKLDKDEYLIYEKYRGLVLTSKGKKIGKRLVYRHELLEQFLRIIGVDEEKIYNDVEGIEHHLSWNSIDRIGDLVQYFEEDDARKKDLKSIQKKTEHHNQ
notes: Manganese-dependent transcription factor MntR of Bacillus subtilis, UniProt P54512; Theoretical mass of the dimer printed as 33.8 kDa; also called BMntR; B. subtilis MntR protein; source: purified as before [3]
- stoichiometry N: 2
